We go through 11 substances from patent US20250011379.

In one data set the target is human C4b (UniProt P0C0L5).
The target in a further data set is soluble human C3b (UniProt P01024).
soluble human C3b, sequence (P01024 whole entry, looked up, tested part not stated): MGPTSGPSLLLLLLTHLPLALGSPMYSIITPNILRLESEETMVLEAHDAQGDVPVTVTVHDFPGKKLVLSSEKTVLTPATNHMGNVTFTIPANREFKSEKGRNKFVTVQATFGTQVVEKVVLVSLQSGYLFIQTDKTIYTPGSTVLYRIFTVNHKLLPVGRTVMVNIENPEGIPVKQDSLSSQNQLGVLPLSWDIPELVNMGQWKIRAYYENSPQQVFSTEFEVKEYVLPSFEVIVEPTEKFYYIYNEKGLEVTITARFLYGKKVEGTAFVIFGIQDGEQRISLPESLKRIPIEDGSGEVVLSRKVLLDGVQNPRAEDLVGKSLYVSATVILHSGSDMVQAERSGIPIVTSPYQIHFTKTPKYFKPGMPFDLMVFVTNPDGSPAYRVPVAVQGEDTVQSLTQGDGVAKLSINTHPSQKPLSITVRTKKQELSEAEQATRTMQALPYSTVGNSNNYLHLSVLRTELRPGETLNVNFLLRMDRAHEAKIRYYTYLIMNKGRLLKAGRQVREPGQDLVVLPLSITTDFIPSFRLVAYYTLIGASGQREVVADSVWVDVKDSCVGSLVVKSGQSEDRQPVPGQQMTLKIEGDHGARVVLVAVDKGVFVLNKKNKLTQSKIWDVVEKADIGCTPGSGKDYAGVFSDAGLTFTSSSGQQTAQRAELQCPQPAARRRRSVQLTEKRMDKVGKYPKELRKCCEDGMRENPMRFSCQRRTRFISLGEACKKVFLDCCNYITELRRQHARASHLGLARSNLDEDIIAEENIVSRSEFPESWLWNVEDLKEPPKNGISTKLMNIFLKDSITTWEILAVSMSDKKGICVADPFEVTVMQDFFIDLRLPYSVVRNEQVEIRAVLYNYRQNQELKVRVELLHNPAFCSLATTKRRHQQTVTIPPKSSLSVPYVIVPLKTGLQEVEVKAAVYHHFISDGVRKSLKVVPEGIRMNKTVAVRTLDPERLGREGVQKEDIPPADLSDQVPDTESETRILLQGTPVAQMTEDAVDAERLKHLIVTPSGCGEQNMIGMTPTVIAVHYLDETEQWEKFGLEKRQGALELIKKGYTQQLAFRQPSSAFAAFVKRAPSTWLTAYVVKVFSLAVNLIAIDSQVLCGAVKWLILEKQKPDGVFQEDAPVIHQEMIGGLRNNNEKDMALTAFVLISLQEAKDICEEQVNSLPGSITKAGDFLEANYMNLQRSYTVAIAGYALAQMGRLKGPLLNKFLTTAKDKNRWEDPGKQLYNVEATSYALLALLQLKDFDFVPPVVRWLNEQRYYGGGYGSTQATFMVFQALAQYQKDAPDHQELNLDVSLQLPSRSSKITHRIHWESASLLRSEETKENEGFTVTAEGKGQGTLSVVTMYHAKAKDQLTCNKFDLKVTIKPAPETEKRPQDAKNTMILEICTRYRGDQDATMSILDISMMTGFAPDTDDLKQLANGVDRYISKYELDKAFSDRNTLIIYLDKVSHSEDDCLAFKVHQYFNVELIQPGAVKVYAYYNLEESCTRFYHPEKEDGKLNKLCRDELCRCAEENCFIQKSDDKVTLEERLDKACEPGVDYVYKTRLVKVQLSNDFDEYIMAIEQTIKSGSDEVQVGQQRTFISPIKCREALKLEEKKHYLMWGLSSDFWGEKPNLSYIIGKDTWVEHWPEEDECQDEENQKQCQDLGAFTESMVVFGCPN

human C4b, sequence (P0C0L5 whole entry, looked up): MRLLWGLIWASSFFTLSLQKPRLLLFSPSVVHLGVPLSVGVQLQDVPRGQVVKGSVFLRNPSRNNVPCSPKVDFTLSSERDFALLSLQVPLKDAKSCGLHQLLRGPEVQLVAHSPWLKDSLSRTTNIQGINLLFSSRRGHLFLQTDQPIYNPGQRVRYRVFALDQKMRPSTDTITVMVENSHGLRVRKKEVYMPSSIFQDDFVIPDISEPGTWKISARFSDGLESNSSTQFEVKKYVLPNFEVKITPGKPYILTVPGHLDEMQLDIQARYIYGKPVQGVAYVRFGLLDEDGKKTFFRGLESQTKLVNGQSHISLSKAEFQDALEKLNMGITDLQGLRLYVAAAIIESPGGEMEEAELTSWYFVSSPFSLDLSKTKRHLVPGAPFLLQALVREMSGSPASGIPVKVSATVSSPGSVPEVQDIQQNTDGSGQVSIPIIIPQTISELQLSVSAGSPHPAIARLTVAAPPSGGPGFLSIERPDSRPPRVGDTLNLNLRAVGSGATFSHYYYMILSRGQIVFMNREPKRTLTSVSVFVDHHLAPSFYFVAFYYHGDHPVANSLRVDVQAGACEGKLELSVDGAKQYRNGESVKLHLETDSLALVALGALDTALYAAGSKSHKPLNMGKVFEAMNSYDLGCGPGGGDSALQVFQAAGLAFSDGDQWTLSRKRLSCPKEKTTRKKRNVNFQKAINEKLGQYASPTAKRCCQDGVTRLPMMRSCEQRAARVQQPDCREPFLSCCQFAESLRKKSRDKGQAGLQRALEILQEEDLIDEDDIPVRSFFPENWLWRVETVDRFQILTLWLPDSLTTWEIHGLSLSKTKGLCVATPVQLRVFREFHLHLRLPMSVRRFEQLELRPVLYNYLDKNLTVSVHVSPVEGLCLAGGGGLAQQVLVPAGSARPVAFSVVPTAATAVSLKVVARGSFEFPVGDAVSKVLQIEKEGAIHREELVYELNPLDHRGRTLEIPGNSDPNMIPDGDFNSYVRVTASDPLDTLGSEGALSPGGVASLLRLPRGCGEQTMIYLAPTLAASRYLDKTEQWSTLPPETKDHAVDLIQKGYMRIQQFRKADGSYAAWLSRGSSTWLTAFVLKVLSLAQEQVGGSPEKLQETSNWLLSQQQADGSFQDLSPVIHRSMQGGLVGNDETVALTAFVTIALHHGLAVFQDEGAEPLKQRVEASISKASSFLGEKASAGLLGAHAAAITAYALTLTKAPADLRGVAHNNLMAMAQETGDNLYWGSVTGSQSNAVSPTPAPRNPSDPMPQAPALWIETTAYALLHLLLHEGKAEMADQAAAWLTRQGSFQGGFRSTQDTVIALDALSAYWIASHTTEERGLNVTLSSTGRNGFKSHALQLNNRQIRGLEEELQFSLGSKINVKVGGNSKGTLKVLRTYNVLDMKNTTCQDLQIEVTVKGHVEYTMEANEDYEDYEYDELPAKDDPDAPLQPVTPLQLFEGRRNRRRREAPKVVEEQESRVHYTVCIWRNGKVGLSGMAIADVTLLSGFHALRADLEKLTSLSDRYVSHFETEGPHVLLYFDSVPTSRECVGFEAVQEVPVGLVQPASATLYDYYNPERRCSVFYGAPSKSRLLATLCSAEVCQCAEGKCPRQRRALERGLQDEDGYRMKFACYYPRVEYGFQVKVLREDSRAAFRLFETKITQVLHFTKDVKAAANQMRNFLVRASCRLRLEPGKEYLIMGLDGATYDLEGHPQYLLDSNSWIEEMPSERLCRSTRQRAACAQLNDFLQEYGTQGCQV
Const. No. 95: HSA linked with CFI (CFI-HSA), wild type, sequence (chain): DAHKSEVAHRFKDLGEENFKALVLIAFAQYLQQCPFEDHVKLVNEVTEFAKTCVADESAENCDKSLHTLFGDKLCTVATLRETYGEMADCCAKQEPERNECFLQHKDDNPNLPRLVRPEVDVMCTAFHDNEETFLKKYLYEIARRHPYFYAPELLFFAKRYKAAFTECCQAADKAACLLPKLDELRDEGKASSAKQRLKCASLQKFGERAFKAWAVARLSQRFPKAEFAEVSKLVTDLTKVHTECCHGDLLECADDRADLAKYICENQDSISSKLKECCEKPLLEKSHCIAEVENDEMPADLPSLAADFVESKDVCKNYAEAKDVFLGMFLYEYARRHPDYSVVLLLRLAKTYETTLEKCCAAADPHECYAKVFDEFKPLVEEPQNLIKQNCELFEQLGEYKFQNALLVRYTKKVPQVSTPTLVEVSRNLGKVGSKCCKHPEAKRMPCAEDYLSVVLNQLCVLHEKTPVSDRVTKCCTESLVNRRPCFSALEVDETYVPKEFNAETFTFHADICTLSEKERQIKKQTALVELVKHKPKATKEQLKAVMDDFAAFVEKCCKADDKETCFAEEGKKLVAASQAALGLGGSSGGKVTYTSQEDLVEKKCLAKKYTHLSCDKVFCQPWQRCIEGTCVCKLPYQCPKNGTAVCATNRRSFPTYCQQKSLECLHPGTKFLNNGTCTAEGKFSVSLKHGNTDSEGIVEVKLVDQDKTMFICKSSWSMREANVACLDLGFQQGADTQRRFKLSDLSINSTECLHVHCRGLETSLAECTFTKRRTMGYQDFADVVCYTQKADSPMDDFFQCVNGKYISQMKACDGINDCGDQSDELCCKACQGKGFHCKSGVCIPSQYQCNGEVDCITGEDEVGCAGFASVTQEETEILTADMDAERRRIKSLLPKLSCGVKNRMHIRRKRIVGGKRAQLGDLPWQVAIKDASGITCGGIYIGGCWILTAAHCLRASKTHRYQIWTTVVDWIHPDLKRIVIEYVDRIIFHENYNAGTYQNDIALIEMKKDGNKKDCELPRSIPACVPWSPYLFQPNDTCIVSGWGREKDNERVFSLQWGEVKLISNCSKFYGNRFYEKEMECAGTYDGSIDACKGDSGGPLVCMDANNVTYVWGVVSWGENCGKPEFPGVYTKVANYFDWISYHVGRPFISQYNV

With “Const. No. 76: HSA-GGSSGG-hCFI; H383K; D385N; K387S; R388Q; E392Q; Y393T; D395K; K419M; D420H; G421T; N422G; D425E”, the C4c ref fold with human C4b amounted to 4.46 fold. In addition, the iC3b ref fold in the data set with soluble human C3b amounted to 2.11 fold.

Regarding “Const. No. 77: HSA-GGSSGG-hCFI; H383K; R388Q; E392Q; Y393T; K419M”, the C4c ref fold with human C4b turned out to be 3.81 fold. The iC3b ref fold with soluble human C3b was determined as 1.21 fold.

As for “Const. No. 78: HSA-GGSSGG-hCFI; K51D; T59E; R61D”, the C4c ref fold with human C4b was -0.24 fold. Besides, the iC3b ref fold in the data set with soluble human C3b amounted to 0 fold.

Turning to “Const. No. 79: HSA-GGSSGG-hCFI; Q69H; L73F; G79E; T80I; L83S; N84H”, the C4c ref fold in the data set with human C4b stood at 3.36 fold. For the same substance, the iC3b ref fold with soluble human C3b was 1.63 fold.

Regarding “Const. No. 80: HSA-GGSSGG-hCFI; Δ(1-KVTYTS-6)(SEQ ID NO: 35) > RSPSASDLP (SEQ ID NO: 36)”, the C4c ref fold with human C4b worked out at 3.07 fold. In addition, the iC3b ref fold with soluble human C3b came to 0.91 fold.

For “Const. No. 81: HSA-GGSSGG-hCFI; M186E; G187L; Y188S; Q189N; D190G; F191L; D193G”, in the data set with human C4b, the C4c ref fold was 3.31 fold. Moreover, the iC3b ref fold with soluble human C3b is 0.95 fold.

Turning to “Const. No. 89: HSA-GGSSGG-hCFI; T377G; E457G; N531G-GGSSGG-hCR1; CCP15; CCP16; CCP17; hFH; CCP4-GGGGGGGGGGGG-hFH; CCP19; CCP20”, the C4c ref fold with human C4b was 3.21 fold. In addition, the iC3b ref fold in the data set with soluble human C3b was found to be 0.05 fold.

With “Const. No. 91: HSA-GGSSGG-hCFI; T377A; E457G; N531G”, the C4c ref fold with human C4b came out at 4.59 fold. For the same substance, in the data set with soluble human C3b, the iC3b ref fold is 1.7 fold.

Const. No. 92: HSA-GGSSGG-hCFI; N422A: the C4c ref fold in the data set with human C4b was 1.52 fold. The iC3b ref fold with soluble human C3b stood at 0.72 fold.

Consider Const. No. 93: HSA-GGSSGG-hCFI; T377A, for which, in the data set with human C4b, the C4c ref fold was 2.36 fold. For the same substance, the iC3b ref fold with soluble human C3b was 1.09 fold.

With “Const. No. 95: HSA linked with CFI (CFI-HSA), wild type”, the C4c ref fold in the data set with human C4b worked out at 1 fold. Moreover, the iC3b ref fold with soluble human C3b stood at 1 fold.
